Test [1] deals with BG505_SOSIP_D664_MD39_mC (BG505 SOSIP-MD39 or MD39) (HIV (strain BG505)). Briefly: SPR (ligand and analyte not given).
For test [2] the target is unchanged. Description: SPR, monovalent interaction.
The target is the same in test [3]. Briefly: ELISA, His-tagged trimer captured, mAb titrated [panel B].
In test [4] the target is BG505_SOSIP.D664_JS_10mut_mC (SOSIP-10MUT) (HIV (strain BG505)). Described as above.
Another test deals with BG505 MD37. Briefly: SPR (ligand and analyte not given).
The target of test [5] is BG505_SOSIP_D664_olio6_mC (HIV (strain BG505)). Briefly: SPR (ligand and analyte not given).
The next test has as its target BG505 MD39C. Description: SPR (ligand and analyte not given).
In test [6] the target is BG505_SOSIP_D664_olio6_mC (HIV (strain BG505)). Description: SPR, IgG ligand, trimer analyte [panel A].
Test [7] addresses BG505_SOSIP_D664_MD39_mC (BG505 SOSIP-MD39 or MD39) (HIV (strain BG505)). Description: SPR, IgG ligand, trimer analyte [panel A]. A general note: In SPR one partner is held on a chip, and binding of the other changes the refractive index at the surface.
Test [8] concerns the target BG505_SOSIP.D664_JS_3mut_mC (SOSIP-3MUT) (HIV (strain BG505)). Briefly: SPR, IgG ligand, trimer analyte [panel A].
The target in test [9] is BG505_SOSIP.D664_JS_5mut_mC (SOSIP-5MUT) (HIV (strain BG505)). Briefly: SPR, IgG ligand, trimer analyte [panel A].
The target of test [10] is BG505_SOSIP.D664_JS_10mut_mC (SOSIP-10MUT) (HIV (strain BG505)). Description: SPR, IgG ligand, trimer analyte [panel A].
Test [11] addresses BG505 SOSIP T332N gp140 (soluble trimer) (HIV (strain BG505)). Briefly: SPR, IgG ligand, trimer analyte [panel A].
Test [12] has the same target. Briefly: ELISA, His-tagged trimer captured, mAb titrated [panel B]. For orientation: In an ELISA, binding on a coated surface is turned into a signal by an enzyme label.
The target in test [13] is MD39-10MUT. Briefly: SPR, IgG ligand, trimer analyte [panel A].
The target in test [14] is BG505 SOSIP T332N gp140 (soluble trimer) (HIV (strain BG505)). Briefly: SPR, IgG ligand, trimer analyte [panel A]. This is another data set of the same source.
For test [15] the target is unchanged. Description: SPR (ligand and analyte not given).
In the next test the target is BG505 MD53. Briefly: SPR (ligand and analyte not given).
Test [16] concerns the target BG505 SOSIP T332N gp140 (soluble trimer) (HIV (strain BG505)). Description: SPR, monovalent interaction.
Test [17] has as its target BG505_SOSIP.D664_JS_3mut_mC (SOSIP-3MUT) (HIV (strain BG505)). Briefly: SPR, trimer ligand, Fab analyte (1-to-1 fit relatively poor) [panel A].
The target of test [18] is BG505_SOSIP_D664_MD39_mC (BG505 SOSIP-MD39 or MD39) (HIV (strain BG505)). The description is as above.
The target in test [19] is BG505_SOSIP.D664_JS_10mut_mC (SOSIP-10MUT) (HIV (strain BG505)). Described as above.
The target of test [20] is BG505_SOSIP_MD39_2JD6 (HIV (strain BG505) fused to Pyrococcus furiosus ferritin). Briefly: SPR, captured particle, Fab analyte.
The target of test [21] is BG505 SOSIP MD39 E2p (HIV (strain BG505) fused to Bacillus stearothermophilus E2p). Description: SPR, captured particle, Fab analyte.
In test [22] the target is BG505_SOSIP_D664_MD39_mC (BG505 SOSIP-MD39 or MD39) (HIV (strain BG505)). Briefly: SPR, trimer ligand, Fab analyte [panel A].
Test [23] concerns the target CD4 on human CD4+ T cells (human) (UniProt P01730). Description: flow cytometry, human CD4+ T cells stained with trimer labelled with two fluorescent probes. In general terms: In flow cytometry, cells or beads pass a laser one at a time.
For test [24], the target named is BG505_MD39_CP1.2_GRSF7_qLoops1 (HIV (strain BG505)). Briefly: SPR, Fab analyte.
The target of test [25] is BG505-gp120 9MUTB (7MUT+N135R/Q328M) (HIV (strain BG505)). Briefly: SPR, monomeric gp120.
The target in test [26] is BG505_SOSIP.D664_JS_3mut_mC (SOSIP-3MUT) (HIV (strain BG505)). Briefly: SPR, trimer ligand, Fab analyte [panel A].
For test [27], the target named is BG505_SOSIP.D664_JS_5mut_mC (SOSIP-5MUT) (HIV (strain BG505)). Description: SPR, trimer ligand, Fab analyte [panel A].
Test [28] deals with MD39-10MUT. Briefly: SPR, trimer ligand, Fab analyte [panel A].
The target in test [29] is BG505_SOSIP.D664_JS_10mut_mC (SOSIP-10MUT) (HIV (strain BG505)). Briefly: SPR, trimer ligand, Fab analyte [panel A].
In test [30] the target is BG505 SOSIP T332N gp140 (soluble trimer) (HIV (strain BG505)). Description: SPR, trimer ligand, Fab analyte [panel A].
The target in test [31] is BG505_SOSIP_D664_MD39_mC (BG505 SOSIP-MD39 or MD39) (HIV (strain BG505)). Description: SPR, trimer ligand, Fab analyte [panel A]. This is another data set of the same source.
The target of test [32] is BG505_SOSIP_D664_olio6_mC (HIV (strain BG505)). Briefly: SPR, trimer ligand, Fab analyte [panel A].

A value given as a limit tells only on which side of the number the result lay.

As to VRC01 (antibody), the equilibrium dissociation constant (Kd) in [1] and in test [2] was 124 nM in each case.

For the substance PGT151 (antibody), the concentration giving a half-maximal response (EC50 (read off the curve)) in [3] and in [4] was 0.03 µg/mL throughout. Moreover, the Kd in test [1] and in test [2] was 11 nM throughout.

Take 3BNC60 (antibody): the dissociation constant Kd is 189 nM with BG505 MD37, 119 nM in [5], 144 nM with BG505 MD39C and 121 nM in test [1].

PGT145 (antibody): the Kd was 31 nM in [6]; 20 nM in test [7]; 3 nM in test [8]; 3 nM in test [9]; 3 nM in [10]; 31 nM in [5]. Besides, the values for the Kd in test [1] and in test [2] were 20 nM and 60 nM, respectively.

For the substance PGDM1400 (antibody), the Kd is 6 nM in [11]; 12 nM in test [7]; 1 nM in test [8]; 1 nM in test [9]; 6 nM in the test with MD39-10MUT [13]; 2 nM in [14]. Also, the Kd was found to be 1 nM in test [10]; 6 nM in [15]; 11 nM with BG505 MD53; 12 nM in test [1]; 5 nM in test [16]; 36 nM in test [2]. Moreover, the EC50 (read off the curve) in test [12], in test [3] and in test [4] was 0.04 µg/mL throughout.

Consider PGT151 Fab, for which the equilibrium dissociation constant (Kd) was 9 nM in test [17]; 11 nM in [18]; 20 nM in [19]; 49 nM in [20]; 25 nM in test [21]; 11 nM in [22].

In the case of “BG505 SOSIP T332N gp140 (soluble trimer) (other; other documents disagree on this pair)”, the percentage of cells in the double-positive population in [23] was determined as 99.1%.

As to PGT145-Fab, the Kd in test [24] came out at 26 nM; in test [20], 49 nM; in [21], 41 nM.

PGT121 (antibody) came in with a Kd in [25] of 1.5 nM.

On to PGT128 (antibody), for which the Kd in the test with BG505 MD37 was 19 nM; in test [5] it was 11 nM; in the test with BG505 MD39C, 14 nM; in test [16] it was 8 nM; in test [2], 12 nM.

With VRC01-Fab, the Kd in [26] was 101 nM; in test [27] it was 195 nM; in the test with MD39-10MUT [28], 142 nM; in [29], 115 nM; in test [20] it was less than 1 nM; in test [21], less than 1 nM. Besides, in test [22], the Kd stood at 124 nM.

PGT128 Fab: the Kd in test [26] came out at 3 nM; in [27] it was 5 nM; with MD39-10MUT [28] it was 3 nM; in [30], 8 nM; in test [31], 12 nM; in [29], 3 nM. Also, the dissociation constant Kd in test [20] came out at 5 nM; in [21], 6 nM; in [22], 11 nM.

With 3BNC60 Fab, the Kd in test [32] is 119 nM; in test [22], 189 nM.

Usually Kd stands for a measure of binding affinity in units of concentration. Low values mean higher affinity, high ones lower affinity. In general, EC50 (read off the curve) refers to the concentration giving half of the maximal effect. Read a high EC50 (read off the curve) as weaker potency.

For the origin of these results see patent publication US20260273042A1.
